Changes are numbered by the printed parent chain.
T1: LTβ (33 kDa) and LTα (23-25 kDa) complex from detergent extracts of PMA activated II-23.D7 cells (human, UniProt P01374 35-205; Q06643 1-244)
T1 construct: Native complex, in NP40 extract; also called LTα1β2 complex; surface LTα1β2
T1 sequence (looked up) 1: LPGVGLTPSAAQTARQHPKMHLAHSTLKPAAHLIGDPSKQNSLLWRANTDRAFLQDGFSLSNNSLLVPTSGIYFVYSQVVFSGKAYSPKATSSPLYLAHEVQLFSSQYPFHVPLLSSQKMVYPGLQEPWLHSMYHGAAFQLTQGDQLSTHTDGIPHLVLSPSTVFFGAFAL
T1 sequence (looked up) 2: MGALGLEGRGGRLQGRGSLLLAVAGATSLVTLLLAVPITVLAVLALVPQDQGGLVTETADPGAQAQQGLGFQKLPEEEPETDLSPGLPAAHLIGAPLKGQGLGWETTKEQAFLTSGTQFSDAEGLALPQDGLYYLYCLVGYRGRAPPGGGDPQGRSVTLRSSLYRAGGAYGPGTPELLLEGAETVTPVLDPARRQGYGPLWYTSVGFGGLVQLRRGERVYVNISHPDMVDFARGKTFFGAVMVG

T2: LTαTyr108Phe (UniProt P01374 35-205)
T2 construct: also called LTαY108F; LTα (Y108F)
T2 sequence (looked up): T1 sequence (looked up) 1 with Y108F

B1: soluble HSV gD-1 (glycoprotein D of HSV-1) (ligand)
chain: KYALVDASLKMADPNRFRGKDLPVLDQLTDPPGVRRVYHIQAGLPDPFQPPSLPITVYYAVLERACRSVLLNAPSEAPQIVRGASEDVRKQPYNLTIAWFRMGGNCAIPITVMEYTECSYNKSLGACPIRTQPRWNYYDSFSAVSEDNLGFLMHAPAFETAGTYLRLVKINDWTEITQFILEHRAKGSCKYALPLRIPPSACLSPQAYQQGVTVDSIGMLPRFIPENQRTVAVYSLKIAGWHGPKAPYTSTLLPPELSETPNATQPELAPEDPEDSALLEDPVGTVAPQIPPNWHIPSIQDAATPY
B2: gD-1 (Δ290-299t), mutant of soluble HSV gD-1 (ligand)
chain: KYALVDASLKMADPNRFRGKDLPVLDQLTDPPGVRRVYHIQAGLPDPFQPPSLPITVYYAVLERACRSVLLNAPSEAPQIVRGASEDVRKQPYNLTIAWFRMGGNCAIPITVMEYTECSYNKSLGACPIRTQPRWNYYDSFSAVSEDNLGFLMHAPAFETAGTYLRLVKINDWTEITQFILEHRAKGSCKYALPLRIPPSACLSPQAYQQGVTVDSIGMLPRFIPENQRTVAVYSLKIAGWHGPKAPYTSTLLPPELSETPNATQPELAPEDPEDSALLEDPVGTVAPQQDAATPY
B3: HVEM:Fc fusion protein (extracellular region of HVEM, 1 to K184, fused to the Fc of human IgG1) (Fc fusion, UniProt Q92956 39-184, looked up)
chain: LPSCKEDEYPVGSECCPKCSPGYRVKEACGELTGTVCEPCPPGTYIAHLNGLSKCLQCQMCDPAMGLRASRNCSRTENAVCGCSPGHFCIVQDGDHCAACRAYATSSPGQRVQKGGTESQDTLCQNCPPGTFSPNGTLEECQHQTK
notes: range 1-184; Made in the baculovirus vector pVL1392; Residues 1-184 include the signal peptide; also called huHVEM:Fc; hu HVEM:Fc; not shown: Fc of human IgG1
B4: recombinant soluble LTα1β2 (ligand)
chain 1: T1 sequence (looked up) 1
chain 2: QDQGGLVTETADPGAQAQQGLGFQKLPEEEPETDLSPGLPAAHLIGAPLKGQGLGWETTKEQAFLTSGTQFSDAEGLALPQDGLYYLYCLVGYRGRAPPGGGDPQGRSVTLRSSLYRAGGAYGPGTPELLLEGAETVTPVLDPARRQGYGPLWYTSVGFGGLVQLRRGERVYVNISHPDMVDFARGKTFFGAVMVG
B5: LTα homotrimer (ligand, UniProt P01374 35-205, looked up)
chain: T1 sequence (looked up) 1
notes: One entry for the recombinant protein and for the native LTα (23-25 kDa, and the 23 kDa precursor) of the human II-23.D7 cells; also called recombinant LTα; secreted LTα
B6: Fas:Fc (Fc fusion, UniProt P25445 26-173, looked up)
chain: QVTDINSKGLELRKTVTTVETQNLEGLHHDGQFCHKPCPPGERKARDCTVNGDEPDCVPCQEGKEYTDKAHFSSKCRRCRLCDEGHGLEVEINCTRTQNTKCRCKPNFFCNSTVCEHCDPCTKCEHGIIKECTLTSNTKCKEEGSRSN
notes: not shown: Fc region of human IgG1

Legend:
[1] = target: LTβR on the surface of human cells (HT29, NHDF) (human) (UniProt P36941); test: cell-based or functional assay
[2] = target: HVEM:Fc fusion protein (extracellular region of HVEM, 1 to K184, fused to the Fc of human IgG1) (human) (UniProt Q92956); test: SPR (BIAcore 1000), receptor:Fc amine-coupled to CM5, LIGHT mutant as analyte
human LTβR:Fc (human) [3] = target: human LTβR:Fc (human) (UniProt P36941); test: as above
[4] = target: mouse HVEM:Fc (extracellular region of mouse HVEM, Met1 to Ser205, fused to the Fc of human IgG1) (mouse; human) (UniProt Q80WM9); test: ELISA, receptor:Fc coated as capture (150 ng/well), FLAG-tagged ligand, M2 anti-FLAG and goat anti-mouse HRP, OD 415 [panel mouse HVEM:Fc]
[5] = target: HVEM:Fc fusion protein (extracellular region of HVEM, 1 to K184, fused to the Fc of human IgG1) (human) (UniProt Q92956); test: ELISA, receptor:Fc coated as capture (150 ng/well), FLAG-tagged ligand, M2 anti-FLAG and goat anti-mouse HRP, OD 415 [panel human HVEM:Fc]
[6] = target: mouse HVEM:Fc (extracellular region of mouse HVEM, Met1 to Ser205, fused to the Fc of human IgG1) (mouse; human) (UniProt Q80WM9); test: ELISA, receptor:Fc as capture, M2 anti-FLAG detection
[7] = target: mouse LTβR:Fc (residues 1 to Met221 of the extracellular domain of mouse LTβR) (mouse) (UniProt P50284); test: as above
mouse LTβR:Fc (residues 1 to Met221 of the extracellular domain of mouse LTβR) (mouse), sequence (P50284 31-221): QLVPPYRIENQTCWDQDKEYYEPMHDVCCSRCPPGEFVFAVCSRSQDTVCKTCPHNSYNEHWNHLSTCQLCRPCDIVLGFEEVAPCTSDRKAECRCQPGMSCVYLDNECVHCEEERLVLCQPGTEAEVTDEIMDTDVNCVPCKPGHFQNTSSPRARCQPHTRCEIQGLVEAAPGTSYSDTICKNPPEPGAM

[8] = target: HVEM:Fc fusion protein (extracellular region of HVEM, 1 to K184, fused to the Fc of human IgG1) (human) (UniProt Q92956); test: SPR (BIAcore 1000), receptor:Fc amine-coupled to CM5, LIGHT as analyte 100-500 nM
human LTβR:Fc (human) [9] = target: human LTβR:Fc (human) (UniProt P36941); test: as above
human LTβR:Fc (human) [10] = target: human LTβR:Fc (human) (UniProt P36941); test: ELISA, receptor:Fc coated as capture (150 ng/well), FLAG-tagged ligand, M2 anti-FLAG and goat anti-mouse HRP, OD 415 [panel Human LTβR:Fc]
[11] = target: HVEM:Fc fusion protein (extracellular region of HVEM, 1 to K184, fused to the Fc of human IgG1) (human) (UniProt Q92956); test: SPR (BIAcore 1000)
[12] = target: p30 (LIGHT), the 30 kDa cell surface HVEM ligand of activated II-23.D7 T hybridoma cells and human T cells (human) (UniProt O43557); test: competition flow cytometry: II-23.D7 cells activated with PMA and ionomycin, pre-incubated with the Fc protein, then HVEM:Fc-rabbit 2 µg/ml, goat anti-rabbit IgG-PE; competitor displaced: HVEM:rbFc [lower graph]
p30 (LIGHT), the 30 kDa cell surface HVEM ligand of activated II-23.D7 T hybridoma cells and human T cells (human), sequence (O43557 whole entry): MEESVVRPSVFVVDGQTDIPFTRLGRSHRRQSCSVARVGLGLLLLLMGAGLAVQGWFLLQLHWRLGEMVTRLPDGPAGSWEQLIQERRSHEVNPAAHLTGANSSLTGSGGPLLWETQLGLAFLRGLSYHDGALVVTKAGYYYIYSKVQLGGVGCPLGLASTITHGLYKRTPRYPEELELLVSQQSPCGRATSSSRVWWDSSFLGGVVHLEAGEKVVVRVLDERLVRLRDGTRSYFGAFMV

[13] = target: B3; test: competition flow cytometry: HVEM:Fc 2 µg/ml pre-incubated with the gD-1 protein 30 min at 4 C, then added to II-23.D7 cells activated with PMA and ionomycin (p30 on the cells) [lower graph]
[14] = target: T3, p30 (LIGHT), the 30 kDa cell surface HVEM ligand of activated II-23.D7 T hybridoma cells and human T cells (human, UniProt O43557 1-240); test: flow cytometry, saturation binding on activated II-23.D7 cells; whole activated (PMA + ionomycin) II-23.D7 cells; apparent half-maximal binding by flow cytometry
T3 construct: whole, on cells; On the cell surface in flow cytometry; in NP40 detergent extracts in the precipitations
T3 sequence (O43557 whole entry): as above
Experimental: II-23.D7 cells were activated for 4 hours at 37° C. with phorbol myristate acetate (PMA) (100 ng/ml), or PMA (100 ng/ml) and ionomycin (1 μg/ml). […] Stained cells were analyzed by flow cytometry (FACSCaliber, Becton-Dickenson). Receptor binding was determined by calculating the fluorescence intensity=(mean fluorescent channel) (% positive fluorescent events), where a positive event has a fluorescence value>98% of the value for normal IgG. Specific fluorescence intensity represents the fluorescence intensity after subtraction of the value for control IgG.

[15] = target: T1, LTβ (33 kDa) and LTα (23-25 kDa) …; test: flow cytometry, II-23.D7 cells activated with PMA alone, goat anti-human IgG-PE; target taken as the surface LTα1β2 of these cells [upper histogram]
LTαTyr108Phe = target: T2, LTαTyr108Phe; test: competition flow cytometry: HVEM:Fc pre-incubated with the ligand, then added to II-23.D7 cells activated with PMA and ionomycin, anti-huIgG-PE
[16] = target: LTβR on the surface of human cells (HT29, NHDF) (human, UniProt P36941 31-435); test: cell-based or functional assay
[17] = target: B3; test: competition flow cytometry: HVEM:Fc pre-incubated with the ligand, then added to II-23.D7 cells activated with PMA and ionomycin (p30 on the cells), anti-huIgG-PE [lower graph]
[18] = target: B3; test: competition flow cytometry: HVEM:Fc pre-incubated with the ligand 30 min at 4 C, then added to II-23.D7 cells activated with PMA and ionomycin (p30 on the cells), anti-huIgG-PE [lower graph]
[19] = target: T3, p30 (LIGHT), the 30 kDa cell surface …; test: competition flow cytometry: II-23.D7 cells activated with PMA and ionomycin, pre-incubated with the Fc protein, then HVEM:Fc-rabbit 2 µg/ml, goat anti-rabbit IgG-PE [lower graph]

Question: What does the source list for LIGHTt66-FLAG mutant Q117T (ligand)?
Answer: 50% cell death of HT29 cells (MTT, 72 h, with IFNγ) [1]: 10 µM; Kd [2]: 0.3 nM; kon [2]: 20000 M⁻¹ s⁻¹; Kd (human LTβR:Fc (human) [3]): 1.5 nM; koff (human LTβR:Fc (human) [3]): 4.5e-05 s⁻¹; EC50 (read off the curve) [4]: 0.9 nM

Question: For LIGHTt66-FLAG mutant L120Q (ligand), which 50% cell death of HT29 cells (MTT, 72 h, with IFNγ) [1] is on record?
Answer: 10 µM

Question: What about the EC50 (read off the curve) [5] of the same molecule?
Answer: 0.08 nM

Question: “LIGHTt66-FLAG, recombinant soluble homotrimeric LIGHT lacking the N-terminal 66 amino acids (ligand)” was tested. Which IC50 for inhibition of pp28 expression (HCMV infected NHDF, western blot) [1] did it give?
Answer: 0.4 nM

Question: And the concentration that completely inhibits the cytopathic effect of HCMV [1]?
Answer: 100 pM

Question: What about the dose for 50% cytotoxicity to HT29 cells (MTT, with IFNγ) [1] of the same molecule?
Answer: 10 to 100 pM

Question: And the up-regulation of ICAM expression by NHDF cells (fold induction, flow cytometry) [1]?
Answer: 4 fold

Question: What about the fold lower affinity (against the human receptors) [6] of the same molecule?
Answer: 10 fold

Question: What about the fold lower affinity (against the human receptors) [7] of the same molecule?
Answer: 10 fold

Question: What about the Kd [8] of the same molecule?
Answer: 3.9 nM

Question: And the koff [8]?
Answer: 4.8e-05 s⁻¹

Question: And the kon [8]?
Answer: 12000 M⁻¹ s⁻¹

Question: And the Kd (human LTβR:Fc (human) [9])?
Answer: 4.5 nM

Question: What about the koff (human LTβR:Fc (human) [9]) of the same molecule?
Answer: 0.00012 s⁻¹

Question: And the kon (human LTβR:Fc (human) [9])?
Answer: 27000 M⁻¹ s⁻¹

Question: What about the EC50 (read off the curve) (human LTβR:Fc (human) [10]) of the same molecule?
Answer: 0.3 nM

Question: What does the source list for LIGHTt66-FLAG mutant G119E (ligand)?
Answer: fold lower affinity than LIGHT t66 [11]: 30 fold; up-regulation of ICAM expression by NHDF cells (fold induction, flow cytometry) [1]: < 1.5 fold; Kd [2]: 114 nM; koff [2]: 0.002 s⁻¹; kon [2]: 18000 M⁻¹ s⁻¹

Question: With “LTβR:Fc (as printed in Examples 1 to 4; human or mouse not said) (Fc fusion)” as the molecule, how does the IC50 (read off the curve) [12] read?
Answer: 10 µg/mL

Question: LIGHTt66-FLAG mutant Y173F (ligand) was tested. Which Kd [11] did it give?
Answer: 180 nM

Question: What about the fold lower affinity than LIGHT t66 [11] of the same molecule?
Answer: > 40 fold

Question: And the 50% cell death of HT29 cells (MTT, 72 h, with IFNγ) [1]?
Answer: 0.001 µM

Question: And the up-regulation of ICAM expression by NHDF cells (fold induction, flow cytometry) [1]?
Answer: 2.5 fold

Question: What about the Kd [2] of the same molecule?
Answer: 173 nM

Question: What about the koff [2] of the same molecule?
Answer: 0.0033 s⁻¹

Question: What about the kon [2] of the same molecule?
Answer: 19000 M⁻¹ s⁻¹

Question: What about the Kd (human LTβR:Fc (human) [3]) of the same molecule?
Answer: 31 nM

Question: And the koff (human LTβR:Fc (human) [3])?
Answer: 0.0011 s⁻¹

Question: What about the kon (human LTβR:Fc (human) [3]) of the same molecule?
Answer: 37000 M⁻¹ s⁻¹

Question: For B1, which “IC50 (read off the curve)” value [13] is on record?
Answer: ~20 µg/mL

Question: B2 was tested. Which “IC50 (read off the curve)” value [13] did it give?
Answer: ~6 µg/mL

Question: With B3 as the molecule, how does the EC50 [14] read?
Answer: 20 nM

Question: Does B3 bind [15]?
Answer: no binding

Question: Does B3 bind (LTαTyr108Phe)?
Answer: no binding

Question: For B4, which “IC50 for inhibition of pp28 expression (HCMV infected NHDF, western blot)” value [16] is on record?
Answer: 1 nM

Question: What does the source list for B5?
Answer: IC50 (read off the curve) [17]: ~50 nM; IC50 (read off the curve) [18]: ~30 nM

Question: Does B6 bind [19]?
Answer: no binding

— patent publication US20030060605A1 (LA JOLLA INSTITUTE FOR ALLERGY AND IMMUNOLOGY, published 2003)
